Tests used:
knockout E. coli strain = assay type: cell-based; details: LB medium, acifluorfen 1 mM, flumioxazin 0.5 mM, lactofen 0.5 mM, fomesafen 1 mM, S-3100 100 μM
[1] = tested on: R1 transgenic cotton plants; assay: R1 cotton greenhouse dicamba injury; details: dicamba 1120 g ai/ha at V4; rated 9 days after treatment; DMO SEQ ID NO:18
Source text: Ten R1 seeds per event from 10 events for each construct and seed from DP393 cotton was planted to evaluate crop tolerance to post-emergence application of dicamba. Dicamba (Clarity) was applied at the V4 stage at 1120 g ai/ha. Crop injury percent ratings were taken 9 days after the treatment.

[2] = tested on: R0 transgenic maize plants; assay: CTP-PPO herbicide tolerance evaluation in R0 transgenic maize (S-3100); assay type: in vivo
Protocol: R0 plants each containing a unique transformation event were sprayed with 40 g ai/ha or 80 g ai/ha of S-3100 at approximately the V5 growth stage and injury ratings were taken 4-7 days after treatment. The number of plants with ≤10% injury (highly tolerant) or ≤20% injury (tolerant) of the total number of sprayed plants was recorded. Plants that were determined to be single-copy events and that passed spray at ≤20% injury were advanced to selfing and outcrossing.

[3] = tested on: transgenic single-copy R0 soybean plants; assay: S-3100 efficacy evaluation in R0 soybean; details: PPO H_N90; 20 g ai/ha S-3100 at about V3; 14 days after treatment
Source text: Transgenic single-copy R0 plants, each representing a unique event, were sprayed in the greenhouse with the herbicide treatment 20 g ai/ha S-3100 applied at approximately the V3 stage. Injury ratings were taken 14 days after treatment as the number that were deemed highly tolerant (≤10% injury) or tolerant (≤20% injury).

[4] = tested on: transgenic Brassica napus plants; assay: Dicamba tolerance in R0 Brassica napus, greenhouse; details: R0 plants with one copy with vector backbone or two copies, tolerant = injury 20% or less, 21 days
Protocol: Brassica napus variety 65037 Restorer line was used for Agrobacterium-mediated transformation and R0 plants were grown in the greenhouse.
Dicamba tolerance was assessed using R0 plants with one copy of transgene with vector backbone or two copies of transgene. Dicamba tolerance was designated as dicamba injury of 20% or less under greenhouse conditions.
Dicamba tolerance was assessed on R0 plants with a one copy of the transgene. Plants were sprayed in the greenhouse with dicamba (Clarity) at 1 lb ae/acre (2× rate), and dicamba tolerance was determined 14 to 21 days later.

[5] = tested on: R1 transgenic soybean plants; assay: R1 soybean greenhouse dicamba injury; details: dicamba 1120 g ai/ha at V4; rated 10 days after treatment; DMO SEQ ID NO:18
Source text: Transgenic soybean plants were generated with two DNA constructs that were identical except for the APG6 CTP. The first DNA construct had APG6 (SEQ ID NO:1) operably linked to DMO (SEQ ID NO:18). The second DNA construct had the optimized APG6 (SEQ ID NO:2) operably linked to DMO (SEQ ID NO:18). Each DNA construct was used to transform A3555 soybean by Agrobacterium mediated transformation methods. Following transformation, R0 transgenic plants containing a single copy of the transgene were identified by PCR assay. Single-copy R0 plants were grown in greenhouse, and R1 seed was harvested. Ten R1 seeds per event for 4 events generated using each of the two DNA constructs and AG3555 seed was planted for evaluation of crop tolerance to post-emergence dicamba treatment under standard greenhouse growth conditions. Dicamba (Clarity) was applied at the V4 stage at 1120 g ai/ha. Crop injury ratings were taken 10 days after the treatment.

[6] = construct configuration 17, PPO H_N40, S-3100 80 g ai/ha
[7] = construct configuration 17, PPO H_N90, S-3100 40 g ai/ha
[8] = construct configuration 18, PPO H_N40, S-3100 80 g ai/ha
[9] = construct configuration 19, PPO H_N40, S-3100 80 g ai/ha

B1: WH_PPO: protoporphyrinogen oxidase from Amaranthus tuberculatus (waterhemp), SEQ ID NO:60 (protein, listed as Amaranthus tuberculatus)
chain: MGNISEREEPTSAKRVAVVGAGVSGLAAAYKLKSHGLSVTLFEADSRAGGKLKTVKKDGFIWDEGANTMTESEAEVSSLIDDLGLREKQQLPISQNKRYIARDGLPVLLPSNPAALLTSNILSAKSKLQIMLEPFLWRKHNATELSDEHVQESVGEFFERHFGKEFVDYVIDPFVAGTCGGDPQSLSMHHTFPEVWNIEKRFGSVFAGLIQSTLLSKKEKGGENASIKKPRVRGSFSFQGGMQTLVDTMCKQLGEDELKLQCEVLSLSYNQKGIPSLGNWSVSSMSNNTSEDQSYDAVVVTAPIRNVKEMKIMKFGNPFSLDFIPEVTYVPLSVMITAFKKDKVKRPLEGFGVLIPSKEQHNGLKTLGTLFSSMMFPDRAPSDMCLFTTFVGGSRNRKLANASTDELKQIVSSDLQQLLGTEDEPSFVNHLFWSNAFPLYGHNYDSVLRAIDKMEKDLPGFFYAGNHKGGLSVGKAMASGCKAAELVISYLDSHIYVKMDEKTA
growth of knockout E. coli strain expressing the PPO in the presence of a PPO herbicide (knockout E. coli strain): sensitive

B2: APG6: Arabidopsis thaliana albino and pale green (APG6) chloroplast transit peptide, SEQ ID NO:1, tested linked to DMO or PPO (protein, listed as Arabidopsis thalinana)
chain: MATATTTATAAFSGVVSVGTETRRIYSFSHLQPSAAFPAKPSSFKSLKLKQSARLTRRLDHRPFVVRC
dicamba % Injury, V4 stage [1]: 2.6%
≤10% injury (percent of plants) [2, 6]: (37.5%)
≤10% injury (plants of total sprayed) [2, 6]: 42/112
≤20% injury (percent of plants) [2, 6]: (58%)
≤20% injury (plants of total sprayed) [2, 6]: 65/112
≤10% injury (percent of plants) [2, 7]: (49.1%)
≤10% injury (plants of total sprayed) [2, 7]: 55/112
≤20% injury (percent of plants) [2, 7]: 56.3%)
≤20% injury (plants of total sprayed) [2, 7]: 63/112
≤10% injury (percent of plants) [2, 8]: (40.2%)
≤10% injury (plants of total sprayed) [2, 8]: 45/112
≤20% injury (percent of plants) [2, 8]: (58.9%)
≤20% injury (plants of total sprayed) [2, 8]: 66/112
≤10% injury (percent of plants) [2, 9]: (21.4%)
≤10% injury (plants of total sprayed) [2, 9]: 12/56
≤20% injury (percent of plants) [2, 9]: (41.1%)
≤20% injury (plants of total sprayed) [2, 9]: 23/56
≤10% injury (events of total, highly tolerant) [3]: 3/14
≤10% injury (percent of unique events) [3]: 21.4%
≤20% injury (events of total, tolerant) [3]: 8/14
≤20% injury (percent of unique events) [3]: 57.1%
2X Tolerant events ([4]; dicamba 1 lb ae/acre): 7/14
4X Tolerant events ([4]; dicamba 2 lb ae/acre): 6/18
Dicamba Injury, V4 stage [5]: 3.6%

Source: US10563220B2, “Compositions and methods for efficient targeting of transgenes” (priority 2015, dated 2020)
